Consider 9 molecules from article PMC5483248, “The LacI family protein GlyR3 co-regulates the celC operon and manB in Clostridium thermocellum” (Biotechnology for Biofuels, 2017).

Where “and” joins values, the source holds several entries; their conditions need not be identical. Equal values may be shown once.

The target in data set [1] is T1, GlyR3 (Acetivibrio thermocellus, UniProt A3DJ78).
T1 construct: gene Cthe_2808; full gene cloned in pTXB1, expressed in E. coli T7 Express C2566, purified with the IMPACT (intein) system
T1 sequence (A3DJ78 1-345): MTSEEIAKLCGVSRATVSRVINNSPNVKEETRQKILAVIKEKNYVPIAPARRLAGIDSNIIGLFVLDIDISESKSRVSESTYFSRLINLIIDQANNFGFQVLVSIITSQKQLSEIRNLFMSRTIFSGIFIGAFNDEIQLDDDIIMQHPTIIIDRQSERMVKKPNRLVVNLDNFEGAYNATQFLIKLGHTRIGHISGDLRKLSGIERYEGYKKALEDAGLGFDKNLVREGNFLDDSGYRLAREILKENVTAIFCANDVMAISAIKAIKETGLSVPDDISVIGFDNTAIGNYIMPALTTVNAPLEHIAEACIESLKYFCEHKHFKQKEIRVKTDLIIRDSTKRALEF
In words: EMSA, release of GlyR3 from biotin-labelled celC operator DNA (ImageJ). Format: binding. The following applies: GlyR3 150 ng (387 nM); celC DNA 0.2 ng (0.156 nM); laminaribiose 70 μg (100 mM); effector, dissociates repressor from celC site. Background: Mobility shift assays separate free from complexed probe on a gel.

In data set [2] the target is T2, GlyR3 (Clostridium thermocellum) (UniProt Q9AL35).
T2 sequence: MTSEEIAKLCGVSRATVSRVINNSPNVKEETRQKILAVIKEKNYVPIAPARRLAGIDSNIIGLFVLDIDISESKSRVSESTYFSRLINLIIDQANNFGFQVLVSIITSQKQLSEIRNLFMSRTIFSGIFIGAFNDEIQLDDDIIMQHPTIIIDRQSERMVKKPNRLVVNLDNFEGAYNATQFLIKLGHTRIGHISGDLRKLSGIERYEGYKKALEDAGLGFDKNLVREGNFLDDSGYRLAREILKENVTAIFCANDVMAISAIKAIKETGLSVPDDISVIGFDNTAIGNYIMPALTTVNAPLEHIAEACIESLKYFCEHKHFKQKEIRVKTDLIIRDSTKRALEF
The experiment in a line: EMSA. As to conditions: LightShift Chemiluminescent EMSA kit, TBE gel; 0.2 ng biotin-DNA (0.156-0.204 nM), GlyR3 150 ng (387 nM) unless titrated; binding buffer salt, pH and ….

Data set [3] addresses T3, GlyR3 (Clostridium thermocellum, UniProt Q9AL35 1-345).
T3 sequence: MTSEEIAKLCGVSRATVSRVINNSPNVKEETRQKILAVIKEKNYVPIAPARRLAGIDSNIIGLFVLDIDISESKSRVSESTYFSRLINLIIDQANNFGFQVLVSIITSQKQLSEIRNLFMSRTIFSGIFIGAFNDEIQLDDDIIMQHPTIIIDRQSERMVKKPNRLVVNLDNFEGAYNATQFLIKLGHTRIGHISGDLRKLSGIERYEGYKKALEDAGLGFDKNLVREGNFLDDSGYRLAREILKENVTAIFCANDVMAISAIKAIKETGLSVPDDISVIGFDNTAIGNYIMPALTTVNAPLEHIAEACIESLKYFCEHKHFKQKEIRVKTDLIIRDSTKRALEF
In words: EMSA. The following applies: LightShift Chemiluminescent EMSA kit, TBE gel, 0.2 ng biotin-DNA (0.156-0.204 nM), GlyR3 150 ng (387 nM) unless titrated, binding buffer salt, pH and ….

Data set [4] has as its target T3, GlyR3. In words: competition; 500 ng 18-mer reverses shift of manB probe; LightShift Chemiluminescent EMSA kit, TBE gel; 0.2 ng biotin-DNA (0.156-0.204 nM), GlyR3 150 ng (387 nM) unless titrated; binding buffer salt, pH and temperature not given. The following applies: protein: recombinant; tags: expressed from pTXB1 (IMPACT intein system, NEB); chain copies: 2; label: unlabeled; blunt.

Data set [5] has as its target T3, GlyR3. In words: competition; 500 ng 18-mer reverses shift of celC probe; LightShift Chemiluminescent EMSA kit, TBE gel; 0.2 ng biotin-DNA (0.156-0.204 nM), GlyR3 150 ng (387 nM) unless titrated; binding buffer salt, pH and temperature not given. The following applies: protein: recombinant; tags: expressed from pTXB1 (IMPACT intein system, NEB); chain copies: 2; label: unlabeled; blunt.

Where [6] appears, read: 387 nM GlyR3, 50 mM laminaribiose.
[7] abbreviates: 387 nM GlyR3, 100 mM laminaribiose.

`OC[C@H]1O[C@@H](O[C@H]2[C@H](O)[C@@H](CO)OC(O)[C@@H]2O)[C@H](O)[C@@H](O)[C@@H]1O` (stereo partly drawn) [laminaribiose]: the “% celC DNA shifted at 100 mM laminaribiose” value on GlyR3 [1] is 67%. For the molecule “CCGAATAAAAACTGGACAGAGAAGAAGAAAACGTGATATAATTAAATTAGAATGAACGCGCGTACATTATTGAATAATCCAGTGTTAAATGGTTTCAGTTTACGATTTCAAATGTTTATATCCAATTTACATTTAAAAACATACAAAACATCAAAAGTATTTAATACCAATATTTAAAACACAATATTTCAGGAGGA (double strand) [celC EMSA fragment]”, in data set [2], the binding entry is reported as “binds” and the binding signal is 99 % shifted.

As for “TCGGTGAATGTTGAGGTTGACAAGGAAGGACTTTATGAAATATTCATCTGCTATGTGCAGCCTTACGACAAAAACAAAAAAGTGCAGTATCTTAATGTAAACGGTGTCAATCAGGGAGAAATAAGCTTTCCGTTTACTCTTAAATGGAGAGAGATTTCAGCAGGA (double strand) [manB EMSA fragment]”, in data set [2], the binding result is recorded as “binds more weakly”; the binding signal was 18 % shifted (2×) and 19 % shifted. Consider “TGAGCAAATCAATTGTAATATGAAGAAAAATATAGTAAGATATTAATAAAAGAATAAAATAATATATTGGTATAATATGTAAATCGGTTGCAGTAATGCTATTCCAATAAAAGATGAAAGATTTCCGTTAATTCATTGAAAGAAACGTTCTGCTGCA (double strand) [celT EMSA fragment]”, for which the binding entry in data set [2] was “no binding”. With “TGTTATCTTCGGTTAGCTCATCAAGGTAATCATAGAATATATTATAAAGAGTAACAAAGTAAATAAACTCAGGTGTATTTTCTTTATATAGAATTCTCATTTGCTCAAGAACTTTATCTTTAACATCCTGAACAGCAGTATCATCCTCCCA (double strand) [random control DNA fragment]”, the binding result in data set [2] was “no binding”. Take celC EMSA fragment: the binding signal was determined as 82 % shifted with GlyR3 [3] (setting [6]); 67 % shifted in the data set with GlyR3 [3] (setting [7]); 99 % shifted with GlyR3 [3] (387 nM GlyR3, no laminaribiose). In the case of manB EMSA fragment, the binding signal with GlyR3 [3] (setting [6]) turned out to be 18 % shifted; with GlyR3 [3] (setting [7]), 19 % shifted; in the data set with GlyR3 [3] (387 nM GlyR3, no laminaribiose), 18 % shifted.

B1: manB 18-mer competitor (dsDNA)
DNA 1: AATGTAAACGGTGTCAAT
DNA 2: ATTGACACCGTTTACATT
Consider B1, for which, in the data set with GlyR3 [4], the binding result is “binds”.

B2: celC 18-mer competitor (dsDNA)
DNA 1: AATGAACGCGCGTACATT
DNA 2: AATGTACGCGCGTTCATT
Consider B2, for which the binding result in the data set with GlyR3 [5] is “binds”.
